# Measurements: patent US20160046725A1 (published 2016)
# Where two headings read alike, the source gives them in different places.
# What was measured:
# Assay in all cases: ELISA
# [1] = molecular target: T1, recombinant human Axl-Fc protein (R and D Systems, cat N° 154-AL) (UniProt P30530 26-451)
# [2] = molecular target: T1, recombinant human Axl-Fc protein (R and …); remark: listed apart in the source
# [3] = molecular target: T1, recombinant human Axl-Fc protein (R and …); remark: listed apart in the source
# T1 sequence (P30530 26-451 D266N): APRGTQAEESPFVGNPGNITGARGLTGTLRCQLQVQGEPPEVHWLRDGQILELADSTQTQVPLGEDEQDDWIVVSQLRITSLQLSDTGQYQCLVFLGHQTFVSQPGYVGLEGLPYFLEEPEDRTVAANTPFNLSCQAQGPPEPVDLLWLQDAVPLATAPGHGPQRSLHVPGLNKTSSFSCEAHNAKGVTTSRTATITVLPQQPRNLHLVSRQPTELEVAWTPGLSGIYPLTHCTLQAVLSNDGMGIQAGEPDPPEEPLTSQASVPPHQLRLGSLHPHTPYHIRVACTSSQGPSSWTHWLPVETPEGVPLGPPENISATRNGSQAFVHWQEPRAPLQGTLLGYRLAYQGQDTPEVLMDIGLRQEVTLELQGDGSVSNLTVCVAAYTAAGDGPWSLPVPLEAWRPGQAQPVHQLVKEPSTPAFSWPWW
binder,measurement,setting,value
"110D7 anti-Axl monoclonal antibody (antibody, V domains shown) VH: EVKLVESGGGLVQPGGSLKLSCATSGFTFSDYYMYWVRQTPEKRLEWVAYISNGGGSTYYPDTVKGRFTMSRDNAKNTLYLQMSRLKSEDTAMYYCARLSFYAMDYWGQGTSVTVSS VL: DIVMTQSHKFMSTSVGDRVSITCKASQDVTTAVAWYQQKPGQSPKLLIYWASTRHTGVPDRFTGSGSGTDYTLTISSVQAEDLALYYCQQHYRIPFTFGSGTKLEIK",EC50,[1],1.35 nM
"1003A2 anti-Axl monoclonal antibody (antibody, V domains shown) VH: EVKLVESGGGLVQPGGSLKLSCAASGFTFNSYSMSWVRQTPEKRLEWVAYISNGGGRTYYPDTIKGRFTLSRDNDRNTLYLQMSSLKSEDTAMYYCARGTTESYYALDYWGQGTSVTVSS VL: DIVMTQSHKFMSTSLGDRISITCKASQDVITAVAWYQQKPGQSPKLLIYWASTRHTGVPDRFTGSGSGTDYNLTISSVQAEDLALYYCQQHFSTPLTFGAGTKLELK",EC50,[2],2.35 nM
"1024G11 anti-Axl monoclonal antibody (antibody, V domains shown) VH: EVKLVESGGGLVQPGGSLNLSCAASGFTFSSYSMSWVRQTPEKRLEWVAFISNGGGRTYYPDTVKGRFTFSRDNARNTLYLQMSSLNSEDTAMYFCARGTTESYYAMDYWGQGTSVTVSS VL: DIVMTQSHKFMSTSVGDRVSITCKASQDVITAVAWYQQKPGQSPKLLIYWASTRHTGVPDRFTGSGSGTDYTLTISSVQAEDLALYFCQQHLSTPLTFGAGTKLELK",EC50,[3],3.57 nM
